Reference: patent US20220064325A1 (ALLIGATOR BIOSCIENCE, published 2022)

T1: human EpCAM expressed on cells (human, UniProt P16422 24-314)
T1 construct: whole, on cells; In the debris and exosome assays EpCAM stands on heat-shocked tumour cell debris or on exosomes; also called EpCAM on CHO-EpCAM, JEG, JAR, HT29, BxPC3, MCF7 and MB49-hEpCAM-OVA cells, their debris or exosomes
T1 sequence (looked up): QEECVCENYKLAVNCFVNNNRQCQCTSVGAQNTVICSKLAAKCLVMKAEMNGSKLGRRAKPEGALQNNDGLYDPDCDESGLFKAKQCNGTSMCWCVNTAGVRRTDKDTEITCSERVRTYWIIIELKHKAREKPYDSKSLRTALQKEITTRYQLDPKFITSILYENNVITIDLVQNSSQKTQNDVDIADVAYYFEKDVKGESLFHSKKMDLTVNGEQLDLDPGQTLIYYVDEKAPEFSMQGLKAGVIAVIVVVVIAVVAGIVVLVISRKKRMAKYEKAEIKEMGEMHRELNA

T2: dimeric antigen EpCAM-Fc (Sino hEpCAM_Fc #10694-H02H) (human, UniProt P16422 24-265)
T2 construct: not shown: Fc part
T2 sequence (looked up): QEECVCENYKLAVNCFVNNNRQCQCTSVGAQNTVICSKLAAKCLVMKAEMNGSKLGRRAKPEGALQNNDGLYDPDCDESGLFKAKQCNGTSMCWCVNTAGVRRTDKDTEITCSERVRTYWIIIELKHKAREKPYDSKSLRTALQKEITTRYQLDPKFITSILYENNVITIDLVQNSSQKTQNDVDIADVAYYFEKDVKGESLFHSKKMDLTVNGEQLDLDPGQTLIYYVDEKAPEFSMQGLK

T3: hEpCAM (R&D Systems #9277-EP), monomeric antigen EpCAM-his (human, UniProt P16422 24-265)
T3 construct: Bought reagent; also called human EpCAM; not shown: His tag
T3 sequence (looked up): T2 sequence (looked up)

B1: 1132.m2 (antibody, V domains shown)
VH: EVQLLESGGGLVQPGGSLRLSCAASGFTFSSYAMSWVRQAPGKGLEWVSGIGSYGGGTYYADSVKGRFTISRDNSKNTLYLQMNSLRAEDTAVYYCARYVNFGMDYWGQGTLVTVSS
VL: DIQMTQSPSSLSASVGDRVTITCRASQSISSYLNWYQQKPGKAPKLLIYAASSLQSGVPSRFSGSGSGTDFTLTISSLQPEDFATYYCQQYGRNPPTFGQGTKLEIK
notes: Full chains are not tied to this name; also called LALA-mutated agonistic monoclonal CD40 antibody
B2: 1132-3188.M (bispecific antibody, V domains shown)
VH 1: B1 VH
VL 1: B1 VL
VH 2: EVQLVQSGPGLVQPGGSVRISCAASGYTFTNYGMNWVKQAPGKGLEWMGWINTYTGESTYADSFKGRFTFSLDTSASAAYLQINSLRAEDTAVYYCARFAIKGDYWGQGTLLTVSS
VL 2: DIQMTQSPSSLSASVGDRVTITCRSTKSLLHSNGITYLYWYQQKPGKAPKLLIYQMSNLASGVPSRFSSSGSGTDFTLTISSLQPEDFATYYCAQNLEIPRTFGQGTKVELK
notes: also called CD40-EpCAM bispecific antibody in the Morrison format; 3188 = 4D5MOCB = BM1
B3: 1132-005025.M (bispecific antibody)
VH: B1 VH
VL: B1 VL
scFv: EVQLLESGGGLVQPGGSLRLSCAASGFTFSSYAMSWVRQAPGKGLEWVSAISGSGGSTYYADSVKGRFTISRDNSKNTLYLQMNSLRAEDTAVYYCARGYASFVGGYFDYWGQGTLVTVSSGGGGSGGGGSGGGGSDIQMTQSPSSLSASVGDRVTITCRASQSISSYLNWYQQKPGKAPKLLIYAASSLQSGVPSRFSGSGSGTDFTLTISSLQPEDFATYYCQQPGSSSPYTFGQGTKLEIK
notes: also called CD40-EpCAM bispecific antibody in the Morrison format
B4: 1132-3174.M (bispecific antibody, V domains shown)
VH 1: B1 VH
VL 1: B1 VL
VH 2: EVQLLEQSGAELVRPGTSVKISCKASGYAFTNYWLGWVKQRPGHGLEWIGDIFPGSGNIHYNEKFKGKATLTADKSSSTAYMQLSSLTFEDSAVYFCARLRNWDEPMDYWGQGTTVTVSS
VL 2: ELVMTQSPSSLTVTAGEKVTMSCKSSQSLLNSGNQKNYLTWYQQKPGQPPKLLIYWASTRESGVPDRFTGSGSGTDFTLTISSVQAEDLAVYYCQNDYSYPLTFGAGTKLEIK
notes: as for B3
B5: 1132-005038.M (bispecific antibody)
VH: B1 VH
VL: B1 VL
scFv: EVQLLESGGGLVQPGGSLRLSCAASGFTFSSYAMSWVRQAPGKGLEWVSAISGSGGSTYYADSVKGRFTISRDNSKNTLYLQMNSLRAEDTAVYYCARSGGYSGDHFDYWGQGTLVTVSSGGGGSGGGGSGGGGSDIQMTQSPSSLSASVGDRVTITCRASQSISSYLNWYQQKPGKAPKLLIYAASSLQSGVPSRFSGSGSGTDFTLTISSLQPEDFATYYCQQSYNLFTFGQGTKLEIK
notes: as for B3

Assays:
[1] = molecular target: T1, human EpCAM expressed on cells; assay: flow cytometry, titration of biotinylated antibody on EpCAM-transfected CHO cells, detection with fluorochrome-conjugated streptavidin
Excerpt: FIG. 3. […] Binding of biotinylated antibodies was detected by flow cytometry using fluorochrome-conjugated streptavidin. Results are pooled from two replicates in one representative experiment of two.
The human EpCAM gene was cloned into pcDNA3.1, and the vector was subsequently stably transfected into CHO cells. Control CHO cells were stably transfected with and empty pcDNA3.1 vector. […] Binding of biotinylated antibodies was detected with fluorochrome-conjugated streptavidin and analysed using flow cytometry.

[2] = molecular target: T4, human CD40 expressed on cells (human, UniProt P25942 21-277); assay: flow cytometry, titration of biotinylated antibody on human PBMC gated with CD19, CD14, CD3 and CD56, detection with fluorochrome-conjugated streptavidin
T4 construct: whole, on cells; also called CD40 on primary human B cells, monocytes, monocyte-derived DCs, Raji cells and hCD40tg mouse DCs
Excerpt: FIG. 5. […] Binding of biotinylated antibodies to different cell populations was detected by flow cytometry using fluorochrome-conjugated streptavidin. Results are pooled from three donors in one representative experiment of two.
Binding of biotinylated antibodies was detected with fluorochrome-conjugated streptavidin and analysed using flow cytometry.

[3] = molecular target: T2, dimeric antigen EpCAM-Fc (Sino …); assay: BLI (Octet RED96), Assay 1: bsAb on FAB2G sensors, dimeric EpCAM-Fc in solution, 1:1 fit
Experimental: (§1) Kinetic measurements were performed using the Octet RED96 platform (ForteBlo).
(§2) BsAb at 1.0 or 1.5 ug/ml where coupled to anti-human Fab-CH1 2nd generation (FAB2G) biosensors (Part no #18-5125 (tray)). Antigens were serially diluted % in 1× Kinetic buffer (ForteBio) to 100 nM, 50 nM, 25 nM, 12.5 nM, 6.25 nM, 3.125 nM, 1.56 nM or 0 nM. The association was followed for 300 seconds and the dissociation in 1× Kinetic buffer for 300 seconds. Sensor tips were regenerated using 10 mM glycine, pH 1.5. Data generated were referenced by subtracting a parallel buffer blank, the baseline was aligned with the y-axis, inter-step correlation by alignment against dissociation was performed and the data were smoothed by a Savitzky-Golay filter in the data analysis software (v.9.0.0.14). The processed data were fitted using a 1:1 Langmuir binding model with X2 as a measurement of fitting accuracy.

[4] = molecular target: T3, hEpCAM (R&D Systems #9277-EP), …; assay: BLI (Octet RED96), Assay 2: bsAb on FAB2G sensors, monomeric EpCAM-his in solution, 1:1 fit
Experimental: as §1, §2

[5] = molecular target: T3, hEpCAM (R&D Systems #9277-EP), …; assay: Mono ELISA (top frame): plate coated with 0.5 µg/mL hEpCAM, detection with HRP-labelled goat anti-human kappa light chain, luminescence
[6] = molecular target: T2, dimeric antigen EpCAM-Fc (Sino …); assay: BLI (Octet RED96), Assay 3: hEpCAM_Fc coupled to AR2G sensors, bsAb in solution, 1:1 fit
Experimental: as §1
Antigen was coupled to Amine reactive Second generation sensors (Dip and Read Amine reactive Second-Generation (AR2G) Biosensors (Part no #18-5092 (tray)) at antigen concentrations of 0.4, 1.5, 0.25 or 0.5 μg/mL. BsAb (serially diluted % in 1× Kinetic buffer (ForteBio) with start concentrations of 20, 15, 10 or 25 nM) were analysed for binding to antigen-coupled sensors. The association was followed for 300 seconds and the dissociation in 1× Kinetic buffer for 300 seconds. Sensor tips were regenerated using 10 mM glycine, pH 2.2. Data generated were referenced by subtracting a parallel buffer blank, the baseline was aligned with the y-axis, inter-step correlation by alignment against dissociation was performed and the data were smoothed by a Savitzky-Golay filter in the data analysis software (v.9.0.0.14). The processed data were fitted using a 1:1 Langmuir binding model with X2 as a measurement of fitting accuracy.

T4 sequence (P25942 21-277): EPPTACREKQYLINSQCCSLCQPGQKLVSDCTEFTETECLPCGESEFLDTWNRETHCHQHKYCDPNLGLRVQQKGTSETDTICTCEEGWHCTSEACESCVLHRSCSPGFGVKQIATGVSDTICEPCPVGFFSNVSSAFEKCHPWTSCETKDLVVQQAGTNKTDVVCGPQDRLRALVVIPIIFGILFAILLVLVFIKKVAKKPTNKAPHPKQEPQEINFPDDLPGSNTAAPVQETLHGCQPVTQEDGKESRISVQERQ

Row | Binder | binding result [1] | binding result [2] | Kd [3] [nM] | koff [3] [s⁻¹] | kon [3] [M⁻¹ s⁻¹] | Kd [4] [nM] | koff [4] [s⁻¹] | kon [4] [M⁻¹ s⁻¹] | EC50 (read off the curve) [5] [nM] | Kd [6] [nM] | koff [6] [s⁻¹] | kon [6] [M⁻¹ s⁻¹]
1 | B1 | no binding (tested: about 300 nM) | binds |  |  |  |  |  |  |  |  |  | 
2 | B2 |  |  | < 0.001 | < 1e-07 | 300000 | 30 | 0.004 | 100000 | ~0.4 |  |  | 
3 | B3 |  |  | 4 | 0.001 | 300000 | 300 | 0.01 | 30000 | ~0.5 |  |  | 
4 | B4 |  |  | 0.5 | 8e-05 | 200000 | 500 | 0.01 | 20000 |  | 10 | 0.002 | 200000
5 | B5 |  |  | 6 | 0.002 | 300000 | 1000 | 0.01 | 8000 | ~1 |  |  | 
